Laboratory results taken from patent publication US20090208486A1.

T1: mouse CXCR3 (mouse) (UniProt O88410)
T1 sequence (looked up): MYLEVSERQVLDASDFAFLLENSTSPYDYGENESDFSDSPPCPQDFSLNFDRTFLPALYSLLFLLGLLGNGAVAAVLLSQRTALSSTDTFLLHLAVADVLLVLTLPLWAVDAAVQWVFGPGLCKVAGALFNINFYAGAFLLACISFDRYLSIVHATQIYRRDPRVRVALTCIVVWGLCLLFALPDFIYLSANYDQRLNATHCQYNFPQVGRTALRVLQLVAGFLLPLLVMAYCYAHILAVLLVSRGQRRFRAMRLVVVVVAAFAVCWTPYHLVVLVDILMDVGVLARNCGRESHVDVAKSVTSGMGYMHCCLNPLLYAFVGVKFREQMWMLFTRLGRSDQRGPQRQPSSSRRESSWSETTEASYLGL


Molecular target: T1, mouse CXCR3 (mouse)
Assay: cell-based or functional assay

| chemokine concentration at which chemotaxis/chemoinvasion responses of B16F10 cells were obtained [ng/mL] | diffusely-stained B16F10 cell population 5 min after CXCL9 (100 ng/ml), phalloidin staining [%] | increase in intracellular Ca2+ concentration after CXCL9 (300 ng/ml) in CXCR3 antisense-transfectant B16F10 clones (CXCR3 protein reduced to about 20-25%) [%] | increase in intracellular Ca2+ concentration of B16F10 cells after CXCL9 (300 ng/ml), Fluo-3 AM [%] | proportion of actin filament polarized B16F10 cells 5 min after CXCL9 (100 ng/ml), phalloidin staining [%] | Molecule |
| --- | --- | --- | --- | --- | --- |
| 50 to 100 | – | – | – | – | recombinant CXCL10 (Peprotech, Inc.) (ligand) |
| 50 to 100 | 22.8 | 5 | 15 to 20 | 38.4 | recombinant CXCL9 (Peprotech, Inc.) (ligand, UniProt P18340 22-126, looked up, species assumed) C-X-C motif chemokine 9: TLVIRNARCSCISTSRGTIHYKSLKDLKQFAPSPNCNKTEIIATLKNGDQTCLDPDSANVKKLMKEWEKKISQKKKQKRGKKHQKNMKNRKPKTPQSRRRSRKTT |
| 50 to 100 | – | – | – | – | recombinant CXCL11 (Peprotech, Inc.) (ligand, UniProt O14625 22-94, looked up, species assumed) C-X-C motif chemokine 11: FPMFKRGRCLCIGPGVKAVKVADIEKASIMYPSNNCDKIEVIITLKENKGQRCLNPKSKQARLIIKKVERKNF |
